Experiments:
[1] = target: AAV2 capsid VP1 mutant B+L (insertion of the P1 peptide at the BsrBI cleavage site) (AAV2) (UniProt P03135); assay: A20 capsid ELISA on virus stock
[2] = target: AAV2 capsid VP1 mutant ΔBH (deletion between BsrBI and HindIII cleavage sites of VP-1, 29 amino acids) (AAV2) (UniProt P03135); assay: A20 capsid ELISA on virus stock
[3] = target: AAV2 capsid VP1 mutant ΔBH+L (deletion between BsrBI and HindIII, and insertion of the P1 peptide) (AAV2) (UniProt P03135); assay: A20 capsid ELISA on virus stock
[4] = target: AAV2 capsid VP1 mutant ΔXho (deletion between the XhoI-XhoI cleavage sites of VP-1, 62 amino acids) (AAV2) (UniProt P03135); assay: A20 capsid ELISA on virus stock
[5] = target: AAV2 capsid VP3 mutant ins447 (insertion after amino acid 447, site YYLSR TNTPS) (AAV2) (UniProt P03135); assay: A20 capsid ELISA on virus stock
[6] = target: AAV2 capsid VP3 mutant ins587 (insertion after amino acid 587, site LQRGN RQAAT) (AAV2) (UniProt P03135); assay: A20 capsid ELISA on virus stock
[7] = target: Wild-type AAV2 capsid (AAV2) (UniProt P03135); assay: A20 capsid ELISA on virus stock
[8] = target: AAV2 capsid mutant I-447 (P1 peptide inserted after amino acid 447) (AAV2) (UniProt P03135); assay: A20 capsid ELISA on CsCl-purified particles
[9] = target: AAV2 capsid mutant I-587 (P1 peptide inserted after amino acid 587) (AAV2) (UniProt P03135); assay: A20 capsid ELISA on CsCl-purified particles
[10] = target: Wild-type AAV2 capsid (AAV2) (UniProt P03135); assay: A20 capsid ELISA on CsCl-purified particles

A20 monoclonal antibody
capsid titer (ELISA with A20 MAb) [1]: 5e+09 particles/ml
capsid titer (ELISA with A20 MAb) [2]: 4e+09 particles/ml
capsid titer (ELISA with A20 MAb) [3]: 5e+10 particles/ml
capsid titer (ELISA with A20 MAb) [4]: 5e+10 particles/ml
capsid titer (ELISA with A20 MAb) [5]: 4e+10 particles/ml
capsid titer (ELISA with A20 MAb) [6]: 2e+10 particles/ml
capsid titer (ELISA with A20 MAb) [7]: 1e+11 particles/ml
titer (ELISA with A20 MAb) [8]: 8e+11 particles/ml
titer (ELISA with A20 MAb) [9]: 3e+12 particles/ml
titer (ELISA with A20 MAb) [10]: 6e+12 particles/ml

From US7285381
